Test results reported in patent US20160223554A1, “METHODS FOR DIAGNOSIS, PROGNOSIS AND METHODS OF TREATMENT” (priority 2011, published 2016).

What was measured:
Assay type in all cases: cell-based, human
AML blasts = assay: SCNP signaling and apoptosis nodes in AML BMMC (Example 4, Study No. 2)
[1] = test system: AML bone marrow mononuclear cells (BMMC); assay: SCNP of paired diagnosis and relapse AML BMMC and independent diagnostic set (Example 5); conditions: for modulator responsive cells in the diagnostic AML bone marrow samples: diagnosis samples of Patients 1 and 2, 15 minutes modulation; for cells in which both p-Akt and p-S6 were induced: SCF 20 ng/ml, 15 minutes
Source text: All AML bone marrow mononuclear cells (BMMC) were derived from the bone marrow (BM) of AML patients treated at MD Anderson Cancer Center (MDACC) between September 1999 and September 2006. Clinical data were de-identified in compliance with Health Insurance Portability and Accountability Act regulations. Patient/sample inclusion criteria required a diagnosis of French-American-British (FAB) classification of M0 through M7 AML (excluding M3) AML, collection prior to therapy initiation and at least 50% viability upon sample thaw. For the identification of chemoresistant signaling profiles, two longitudinally paired BMMC samples at diagnosis (collection prior to the initiation of induction chemotherapy) and first relapse, were examined. An independent test set comprised of 47 BMMC samples collected at diagnosis from AML patients with a disease response of CR after high dose cytarabine based chemotherapy was used to assess the ability of the identified signaling profiles to predict disease relapse. Healthy, unstimulated BMMC (n=2) were purchased from a commercial source (All Cells) to serve as a control. All samples underwent fractionation over Ficoll-Hypaque prior to cryopreservation with 90% fetal bovine serum and 10% dimethyl sulfoxide and storage in liquid nitrogen.
The SCNP assay measured response to growth factors and cytokines involved in hematopoietic progenitor or myeloid biology (SCF, FLT3L, G-CSF, IL-27), drug transporter (ABCG2, MRP-1) and chemokine receptors (CXCR4) associated with adverse disease prognosis in AML, and the c-Kit growth factor receptor for SCF. The SCF and FLT3L—mediated PI3K/Akt and MAPK pathway is important for maintaining the hematopoietic stem cell pool; G-CSF-mediated Jak/STAT pathway activation is important for neutrophilic differentiation of hematopoietic progenitor cells; interleukin (IL)-27 mediated Jak/STAT pathway activation is important in regulating proliferation and differentiation of hematopoietic stem cells; CXCR4 expression is associated with disease relapse and decreased survival; and drug transporter expression levels (i.e. ABCG2 and MRP-1) are known to be associated with adverse prognosis in AML. All together, approximately 20 signaling nodes were evaluated in each sample.
SCNP assays were performed as described previously. Cryopreserved samples were thawed at 37° C. and washed once in warm PBS containing 10% FBS (HyClone, Waltham, Mass., USA) and 2 mM EDTA. […] The cells were re-suspended in RPMI containing 1% FBS, aliquoted to 100,000 cells/condition and rested for 1-2 hours at 37° C. Cells were incubated for 15 minutes at 37° C. with each of the following signaling modulators: fins-like tyrosine kinase receptor-3 ligand (FLT3L, 50 ng/ml; eBiosciences, San Diego, Calif., USA); granulocyte colony-stimulating factor (G-CSF, 50 ng/ml; R&D Systems, Minneapolis, Minn., USA); interleukin-27 (IL-27, 50 ng/ml, R&D Systems); stem cell factor (SCF, 20 ng/ml, R&D Systems). After exposure to modulators, cells were fixed with a final concentration of 1.6% paraformaldehyde (Electron Microscopy Sciences, Hatfield, Pa., USA) for 10 minutes at 37° C. Cells were pelleted and then permeabilized with 100% ice-cold methanol (Sigma-Aldrich, St. Louis, Mo., USA) and stored at −80° C. overnight. Subsequently, cells were washed with FACS buffer containing phosphate buffered saline (PBS, Fisher Scientific, Waltham, Mass., USA), 0.5% bovine serum albumin (BSA, Ankeny, Iowa, USA), 0.05% NaN3 (Mallinckrodt, Hazelwood, Mo., USA), pelleted and stained with cocktails of fluorochrome-conjugated antibodies. As an exploratory effort, when sufficient number of cells were available, simultaneous measurement of c-Kit expression and SCF induced signaling was also performed. Antibodies were available from commercial vendors such as BD, Bechman Coulter, Invitrogen and R&D Systems.
Flow cytometry data was acquired on an LSR II and/or CANTO II flow cytometer using the FACS DIVA software (BD Biosciences, San Jose, Calif.). […]

AML PBMC = assay: Kinase inhibitor Signaling Arm, SCNP (Example 13); conditions: range over AML PBMC samples (N=6); short modulation, 15 minutes
[2] = Study No.2, patients age 60 and older
[3] = Study No.2, patients with De Novo AML
[4] = Study No.2, patients with Secondary AML
[5] = Fold metric, all patients, Study No. 2
[6] = Study No.2, patients less than 60 years old
[7] = TotalPhospho metric, all patients, Study No. 2

## SCF: stem cell factor, ligand of c-Kit
AML blasts; [2]
  Mean Value of CRs, p-S6 Fold: 0.14
  Mean Value of NRs, p-S6 Fold: 0.70
AML blasts; [3]
  Mean Value of CRs, p-Akt Fold: 0.52
  Mean Value of CRs, p-PLCy2 TotalPhospho: 1.29
  Mean Value of CRs, p-S6 Fold: 1.05
  Mean Value of NRs, p-Akt Fold: −0.20
  Mean Value of NRs, p-PLCy2 TotalPhospho: 1.96
  Mean Value of NRs, p-S6 Fold: 0.43
AML blasts; [4]
  Mean Value of CRs, p-S6 Fold: 0.21
  Mean Value of NRs, p-S6 Fold: 1.28
[1]
  modulator responsive cells in the diagnostic AML bone marrow samples: ~1%
[1]; relapse sample from Patient 1
  cells in which both p-Akt and p-S6 were induced: 3.2%
[1]; relapse sample from Patient 2
  cells in which both p-Akt and p-S6 were induced: 31.7%
AML PBMC
  percentage of growth factor responsive cells: 6%-49%

B1: G-CSF: granulocyte colony-stimulating factor (protein, UniProt P09919 31-207, looked up)
Granulocyte …: TPLGPASSLPQSFLLKCLEQVRKIQGDGAALQEKLVSECATYKLCHPEELVLLGHSLGIPWAPLSSCPSQALQLAGCLSQLHSGLFLYQGLLQALEGISPELGPTLDTLQLDVADFATTIWQQMEELGMAPALQPTQGAMPAFASAFQRRAGGVLVASHLQSFLEVSYRVLRHLAQP
AML blasts; [4]
  Mean Value of CRs, p-Stat1 Fold: 0.00
  Mean Value of CRs, p-Stat3 Fold: 0.06
  Mean Value of CRs, p-Stat5 Fold: 0.08
  Mean Value of CRs, p-Stat5 TotalPhospho: 2.58
  Mean Value of NRs, p-Stat1 Fold: 0.36
  Mean Value of NRs, p-Stat3 Fold: 0.96
  Mean Value of NRs, p-Stat5 Fold: 1.07
  Mean Value of NRs, p-Stat5 TotalPhospho: 3.91
[1]
  modulator responsive cells in the diagnostic AML bone marrow samples: ~1%
AML PBMC
  percentage of growth factor responsive cells: 3%-56%

B2: FLT3L: fms-like tyrosine kinase receptor-3 ligand (protein, UniProt P49771 27-235, looked up)
Fms-related tyrosine kinase 3 …: TQDCSFQHSPISSDFAVKIRELSDYLLQDYPVTVASNLQDEELCGGLWRLVLAQRWMERLKTVAGSKMQGLLERVNTEIHFVTKCAFQPPPSCLRFVQTNISRLLQETSEQLVALKPWITRQNFSRCLELQCQPDSSTLPPPWSPRPLEATAPTAPQPPLLLLLLLPVGLLLLAAAWCLHWQRTRRRTPRPGEQVPPVPSPQDLLLVEH
AML blasts; [2]
  Mean Value of CRs, p-Akt Fold: 0.00
  Mean Value of CRs, p-Erk Fold: 0.01
  Mean Value of CRs, p-S6 Fold: −0.06
  Mean Value of NRs, p-Akt Fold: 0.36
  Mean Value of NRs, p-Erk Fold: 0.21
  Mean Value of NRs, p-S6 Fold: 0.67
AML blasts; [3]
  Mean Value of CRs, p-PLCy2 TotalPhospho: 1.26
  Mean Value of NRs, p-PLCy2 TotalPhospho: 1.95
AML blasts; [4]
  Mean Value of CRs, P-Erk Fold: 0.00
  Mean Value of CRs, p-Akt Fold: 0.19
  Mean Value of CRs, p-S6 Fold: 0.12
  Mean Value of NRs, P-Erk Fold: 0.32
  Mean Value of NRs, p-Akt Fold: 0.60
  Mean Value of NRs, p-S6 Fold: 1.02
[1]
  modulator responsive cells in the diagnostic AML bone marrow samples: ~1%
AML PBMC
  percentage of growth factor responsive cells: 3%-22%

B3: IL-27: interleukin-27, cytokine modulator (protein, UniProt Q8NEV9 29-243; Q14213 21-229, looked up)
Interleukin-27 subunit alpha: FPRPPGRPQLSLQELRREFTVSLHLARKLLSEVRGQAHRFAESHLPGVNLYLLPLGEQLPDVSLTFQAWRRLSDPERLCFISTTLQPFHALLGGLGTQGRWTNMERMQLWAMRLDLRDLQRHLRFQVLAAGFNLPEEEEEEEEEEEEERKGLLPGALGSALQGPAQVSWPQLLSTYRLLHSLELVLSRAVRELLLLSKAGHSVWPLGFPTLSPQP
Interleukin-27 subunit beta: RKGPPAALTLPRVQCRASRYPIAVDCSWTLPPAPNSTSPVSFIATYRLGMAARGHSWPCLQQTPTSTSCTITDVQLFSMAPYVLNVTAVHPWGSSSSFVPFITEHIIKPDPPEGVRLSPLAERQLQVQWEPPGSWPFPEIFSLKYWIRYKRQGAARFHRVGPIEATSFILRAVRPRARYYVQVAAQDLTDYGELSDWSLPATATMSLGK
AML blasts; [5]
  Mean Value of CRs, p-Stat3: 0.22
  Mean Value of NRs, p-Stat3: 0.58
AML blasts; [2]
  Mean Value of CRs, p-Stat3 Fold: −0.19
  Mean Value of NRs, p-Stat3 Fold: 0.48
AML blasts; [6]
  Mean Value of CRs, p-Stat1 TotalPhospho: 1.73
  Mean Value of CRs, p-Stat3 Fold: 0.29
  Mean Value of CRs, p-Stat3 TotalPhospho: 1.97
  Mean Value of NRs, p-Stat1 TotalPhospho: 3.12
  Mean Value of NRs, p-Stat3 Fold: 0.72
  Mean Value of NRs, p-Stat3 TotalPhospho: 3.06
AML blasts; [4]
  Mean Value of CRs, p-Stat1 Fold: 0.32
  Mean Value of CRs, p-Stat1 TotalPhospho: 1.50
  Mean Value of CRs, p-Stat3 Fold: −0.01
  Mean Value of CRs, p-Stat3 TotalPhospho: 1.61
  Mean Value of NRs, p-Stat1 Fold: 1.90
  Mean Value of NRs, p-Stat1 TotalPhospho: 3.19
  Mean Value of NRs, p-Stat3 Fold: 0.76
  Mean Value of NRs, p-Stat3 TotalPhospho: 2.60
AML blasts; [7]
  Mean Value of CRs, p-Stat1: 1.66
  Mean Value of CRs, p-Stat3: 1.88
  Mean Value of NRs, p-Stat1: 2.63
  Mean Value of NRs, p-Stat3: 2.43
[1]
  modulator responsive cells in the diagnostic AML bone marrow samples: no IL-27 responsive subpopulation was identified
